Laboratory results: patent US20250236679A1 (Chugai, published 2025)

Experiments:
human DLL3-Fc = target: T1, human DLL3-Fc (human); test: ELISA, immobilized human DLL3-Fc
T1 construct: also called soluble DLL3 protein
T1 chain: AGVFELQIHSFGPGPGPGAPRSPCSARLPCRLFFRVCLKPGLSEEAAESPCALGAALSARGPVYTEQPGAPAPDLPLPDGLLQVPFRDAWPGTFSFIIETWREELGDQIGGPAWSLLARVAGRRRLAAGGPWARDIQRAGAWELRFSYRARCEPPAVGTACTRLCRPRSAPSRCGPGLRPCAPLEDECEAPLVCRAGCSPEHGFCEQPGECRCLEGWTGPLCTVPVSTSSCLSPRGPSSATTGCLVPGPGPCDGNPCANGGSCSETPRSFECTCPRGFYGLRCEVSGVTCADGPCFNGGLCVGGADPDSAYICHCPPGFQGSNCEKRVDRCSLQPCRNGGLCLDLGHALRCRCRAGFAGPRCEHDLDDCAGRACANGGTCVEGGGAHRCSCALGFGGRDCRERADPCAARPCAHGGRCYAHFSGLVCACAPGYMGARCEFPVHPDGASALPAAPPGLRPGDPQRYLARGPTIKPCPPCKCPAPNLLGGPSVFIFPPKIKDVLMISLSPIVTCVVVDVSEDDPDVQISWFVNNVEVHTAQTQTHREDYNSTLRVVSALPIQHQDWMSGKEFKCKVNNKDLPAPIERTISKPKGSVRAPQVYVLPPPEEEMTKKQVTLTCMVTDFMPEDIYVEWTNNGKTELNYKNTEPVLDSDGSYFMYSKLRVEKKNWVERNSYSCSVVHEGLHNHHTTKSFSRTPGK
Procedure: The competition of a chimeric antibody and a mouse antibody for binding to the antigen molecule was analyzed by ELISA (FIG. 8 (b)). Human DLL3-Fc was added at 10 ng/well to a Nunc immunoplate and immobilized thereon. A mixture (final concentration: 50 ng/ml) of the chimeric antibody and the appropriately diluted mouse antibody was added to the DLL3-Fc protein-immobilized plate. The plate was incubated at room temperature for 1 hour and then washed. Alkaline phosphatase-labeled anti-human antibodies were added thereto and incubated. After the incubation, Sigma 104 was added thereto, and the absorbance was measured. The binding of the chimeric antibody to the antigen molecule competed with that of the original mouse monoclonal antibody thereto.

[1] = target: T2, human DLL3 expressed on cells (human DLL3/BaF3) (human, UniProt Q9NYJ7 27-618); test: flow cytometry on human DLL3/BaF3 cells, chimeric antibody 1 µg/ml
T2 construct: Full-length human DLL3 on the membrane of transformed Ba/F3 cells; The ADCC assays also used NCI-H1184 small-cell lung cancer cells that express DLL3; also called Delta-like 3; NM_016941
T2 sequence: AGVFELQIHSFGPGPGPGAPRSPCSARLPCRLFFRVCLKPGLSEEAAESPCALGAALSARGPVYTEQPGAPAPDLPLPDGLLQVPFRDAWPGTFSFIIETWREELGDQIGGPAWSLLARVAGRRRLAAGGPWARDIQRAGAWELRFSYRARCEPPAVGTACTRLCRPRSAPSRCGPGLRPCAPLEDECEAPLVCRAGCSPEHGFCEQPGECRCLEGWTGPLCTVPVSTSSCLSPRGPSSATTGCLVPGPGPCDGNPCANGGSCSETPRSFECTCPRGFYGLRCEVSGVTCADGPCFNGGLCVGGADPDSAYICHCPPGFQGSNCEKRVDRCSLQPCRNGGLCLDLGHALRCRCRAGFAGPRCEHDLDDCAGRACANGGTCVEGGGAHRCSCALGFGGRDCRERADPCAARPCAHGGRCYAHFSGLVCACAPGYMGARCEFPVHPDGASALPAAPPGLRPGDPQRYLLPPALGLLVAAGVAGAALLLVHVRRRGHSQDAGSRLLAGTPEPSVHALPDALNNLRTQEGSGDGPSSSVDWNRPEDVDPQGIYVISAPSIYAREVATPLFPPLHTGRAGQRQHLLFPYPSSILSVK
Procedure: The chimeric antibody in the culture supernatant of COS-7 was confirmed to bind to the human DLL3 protein by flow cytometry and ELISA. The chimeric antibody concentration in the culture supernatant of COS-7 was calculated by sandwich ELISA. In this concentration calculation, a human chimeric antibody known for its concentration was used as a standard. The chimeric antibody (final concentration: 1 μg/ml) was added to human DLL3/BaF3 cells suspended in a FACS buffer (PBS containing 1% fetal bovine serum). After incubation at 4° C. for 30 minutes and washing, the cells were reacted with FITC-labeled anti-human antibodies (Beckman Coulter, Inc.), and the binding of the chimeric antibody was analyzed using a flow cytometer FACSCalibur. […] None of the chimeric antibodies bound to Ba/F3 cells, which were a parental line of the forced expressing cells. Human DLL3-Fc was immobilized on a Nunc immunoplate, and the binding of each chimeric antibody to the immobilized protein was analyzed. For detecting antigen-bound chimeric antibodies, the chimeric antibody was added thereto, and alkaline phosphatase-labeled anti-human antibodies (Biosource, AHI0305) and an alkaline phosphatase substrate Sigma 104 were then added in this order. The absorbance was determined. The DL301, DL309, and DL312 chimeric antibodies bound to human DLL3-Fc in a dose-dependent manner (FIG. 8(a)).
COS-7 cells were transfected with the DL306 chimeric antibody expression vector and allowed to transiently express the chimeric antibody. The chimeric antibody in the culture supernatant of COS-7 was confirmed to bind to the human DLL3 protein by flow cytometry. The chimeric antibody concentration in the culture supernatant of COS-7 was calculated by sandwich ELISA. In this concentration calculation, a human chimeric antibody known for its concentration was used as a standard. […] After incubation at 4° C. for 30 minutes and washing, the cells were reacted with FITC-labeled anti-human antibodies (Beckman Coulter, Inc.), and the binding of the chimeric antibody was analyzed using a flow cytometer FACSCalibur.

| Binder | binding result (human DLL3-Fc) | binding result [1] |
| --- | --- | --- |
| DL301 human chimeric antibody (antibody, human IgG1, kappa, Mouse variable regions with human IgG1 constant regions; also called chimeric antibody DL301; DL301 chimeric antibody) heavy: not shown light: DIKMTQSPSSMYASLGERVTITCKASQDINSYLIWFQQKPGKSPKTLIYRTNRLVDGVPSRFSGSGSGQDYSLTISSLEYGDMGIYYCLQYDEFPFTFGSGTKLEIKRTVAAPSVFIFPPSDEQLKSGTASVVCLLNNFYPREAKVQWKVDNALQSGNSQESVTEQDSKDSTYSLSSTLTLSKADYEKHKVYACEVTHQGLSSPVTKSFNRGEC | binds | binds |
| DL309 human chimeric antibody (antibody, human IgG1, kappa, Mouse variable regions with human IgG1 constant regions; also called chimeric antibody DL309; DL309 chimeric antibody) heavy: not shown light: DIVMTQSQKFMSTSVGDRVSVTCKASQNVGTNVAWYQQKPGQSPKALIYSASYRYSGVPDRFTGSGSGTDFTLTISNVQSEDLAEYFCQQYNNYPLTFGAGTKLELKRTVAAPSVFIFPPSDEQLKSGTASVVCLLNNFYPREAKVQWKVDNALQSGNSQESVTEQDSKDSTYSLSSTLTLSKADYEKHKVYACEVTHQGLSSPVTKSFNRGEC | binds | binds |
| DL312 human chimeric antibody (antibody, human IgG1, kappa, Mouse variable regions with human IgG1 constant regions; also called chimeric antibody DL312; DL312 chimeric antibody) heavy: not shown light: DIQMTQSPSSLSASLGERVSLTCRASQEISDYLSWLQQKPDGTIKRLIFAASTLDSGVPKRFSGSRSGSDFSLSISSLESEDFADYYCLQYASYPYTFGSGTKLEIKRTVAAPSVFIFPPSDEQLKSGTASVVCLLNNFYPREAKVQWKVDNALQSGNSQESVTEQDSKDSTYSLSSTLTLSKADYEKHKVYACEVTHQGLSSPVTKSFNRGEC | binds | binds |
